# B1: human fibrinogen (complex)
# chain 1: ADSGEGDFLAEGGGVRGPRVVERHQSACKDSDWPFCSDEDWNYKCPSGCRMKGLIDEVNQDFTNRINKLKNSLFEYQKNNKDSHSLTTNIMEILRGDFSSANNRDNTYNRVSEDLRSRIEVLKRKVIEKVQHIQLLQKNVRAQLVDMKRLEVDIDIKIRSCRGSCSRALAREVDLKDYEDQQKQLEQVIAKDLLPSRDRQHLPLIKMKPVPDLVPGNFKSQLQKVPPEWKALTDMPQMRMELERPGGNEITRGGSTSYGTGSETESPRNPSSAGSWNSGSSGPGSTGNRNPGSSGTGGTATWKPGSSGPGSTGSWNSGSSGTGSTGNQNPGSPRPGSTGTWNPGSSERGSAGHWTSESSVSGSTGQWHSESGSFRPDSPGSGNARPNNPDWGTFEEVSGNVSPGTRREYHTEKLVTSKGDKELRTGKEKVTSGSTTTTRRSCSKTVTKTVIGPDGHKEVTKEVVTSEDGSDCPEAMDLGTLSGIGTLDGFRHRHPDEAAFFDTASTGKTFPGFFSPMLGEFVSETESRGSESGIFTNTKESSSHHPGIAEFPSRGKSSSYSKQFTSSTSYNRGDSTFESKSYKMADEAGSEADHEGTHSTKRGHAKSRPV
# chain 2: QGVNDNEEGFFSARGHRPLDKKREEAPSLRPAPPPISGGGYRARPAKAAATQKKVERKAPDAGGCLHADPDLGVLCPTGCQLQEALLQQERPIRNSVDELNNNVEAVSQTSSSSFQYMYLLKDLWQKRQKQVKDNENVVNEYSSELEKHQLYIDETVNSNIPTNLRVLRSILENLRSKIQKLESDVSAQMEYCRTPCTVSCNIPVVSGKECEEIIRKGGETSEMYLIQPDSSVKPYRVYCDMNTENGGWTVIQNRQDGSVDFGRKWDPYKQGFGNVATNTDGKNYCGLPGEYWLGNDKISQLTRMGPTELLIEMEDWKGDKVKAHYGGFTVQNEANKYQISVNKYRGTAGNALMDGASQLMGENRTMTIHNGMFFSTYDRDNDGWLTSDPRKQCSKEDGGGWWYNRCHAANPNGRYYWGGQYTWDMAKHGTDDGVVWMNWKGSWYSMRKMSMKIRPFFPQQ
# chain 3: YVATRDNCCILDERFGSYCPTTCGIADFLSTYQTKVDKDLQSLEDILHQVENKTSEVKQLIKAIQLTYNPDESSKPNMIDAATLKSRKMLEEIMKYEASILTHDSSIRYLQEIYNSNNQKIVNLKEKVAQLEAQCQEPCKDTVQIHDITGKDCQDIANKGAKQSGLYFIKPLKANQQFLVYCEIDGSGNGWTVFQKRLDGSVDFKKNWIQYKEGFGHLSPTGTTEFWLGNEKIHLISTQSAIPYALRVELEDWNGRTSTADYAMFKVGPEADKYRLTYAYFAGGDAGDAFDGFDFGDDPSDKFFTSHNGMQFSTWDNDNDKFEGNCAEQDGSGWWMNKCHAGHLNGVYYQGGTYSKASTPNGYDNGIIWATWKTRWYSMKKTTMKIIPFNRLTIGEGQQHHLGGAKQAGDV
# modifications: Plasma-derived intact fibrinogen (Enzyme Research Laboratories), fibrinopeptides A and B retained; disulfide-linked (AαBβγ)2 hexamer, N-glycosylated, Ca2+-bound. By convention, the major circulating …
# Experiments:
# Assay in all cases: ELISA; ECM protein coated on the plate (100 nM in PBS, 1 h, 37 °C), blocked with 1% BSA in PBS-T; IL-1Ra or PDGF-BB variants at 0 to 100 nM in PBS-T with 0.1% BSA, 1 h, room temperature; bound protein detected with biotinylated antibodies (DuoSet); specific binding fitted with a one site-specific binding model; means of 3 independent experiments
# Details in all cases: both partners purified
# PDGF-BB/PlGF123-141 = target: T1, PDGF-BB/PlGF123-141
# T1 construct: platelet-derived growth factor subunit B; also called engineered PDGF-BB
# IL-1Ra/PlGF123-141 = target: T2, IL-1Ra/PlGF123-141
# T2 construct: interleukin-1 receptor antagonist; source: E. coli BL21 (DE3), pET-22b, soluble fraction purified (chelating SFF(Ni) column)
# human vitronectin = target: T3, human vitronectin (human, UniProt P04004 20-478)
# T3 construct: vitronectin, human; also called Vn; source: bought: Peprotech
# human plasma fibronectin = human plasma fibronectin (human)
# human tenascin C = target: T4, human tenascin C (human, UniProt P24821 23-2201)
# T4 construct: tenascin C, human; also called TnC; source: bought: R&D Systems
# human fibrinogen = target: B1
# human fibrinogen, sequence (P02671 36-866): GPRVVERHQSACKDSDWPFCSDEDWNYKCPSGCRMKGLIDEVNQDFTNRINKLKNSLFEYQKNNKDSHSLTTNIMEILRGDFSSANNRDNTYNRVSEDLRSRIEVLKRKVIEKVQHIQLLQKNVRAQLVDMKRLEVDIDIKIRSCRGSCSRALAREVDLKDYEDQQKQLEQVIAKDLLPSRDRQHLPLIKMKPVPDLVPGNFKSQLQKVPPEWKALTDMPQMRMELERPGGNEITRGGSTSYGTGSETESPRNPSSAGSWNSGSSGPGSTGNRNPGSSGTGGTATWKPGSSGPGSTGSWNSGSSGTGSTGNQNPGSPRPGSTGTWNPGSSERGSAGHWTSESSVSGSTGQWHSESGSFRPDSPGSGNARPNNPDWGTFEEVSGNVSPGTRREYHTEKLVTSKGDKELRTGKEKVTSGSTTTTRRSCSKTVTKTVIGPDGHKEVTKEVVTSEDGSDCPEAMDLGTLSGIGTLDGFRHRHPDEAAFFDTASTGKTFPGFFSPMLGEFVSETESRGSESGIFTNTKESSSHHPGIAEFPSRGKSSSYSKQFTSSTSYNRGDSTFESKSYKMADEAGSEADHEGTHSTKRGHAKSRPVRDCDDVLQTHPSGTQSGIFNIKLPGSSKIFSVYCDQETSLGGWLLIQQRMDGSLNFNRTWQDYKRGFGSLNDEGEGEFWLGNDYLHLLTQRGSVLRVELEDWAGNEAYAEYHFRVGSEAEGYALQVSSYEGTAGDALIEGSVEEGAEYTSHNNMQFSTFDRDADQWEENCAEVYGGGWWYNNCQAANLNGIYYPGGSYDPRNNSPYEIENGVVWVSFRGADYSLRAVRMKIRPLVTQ
# T4 sequence (P24821 23-2201): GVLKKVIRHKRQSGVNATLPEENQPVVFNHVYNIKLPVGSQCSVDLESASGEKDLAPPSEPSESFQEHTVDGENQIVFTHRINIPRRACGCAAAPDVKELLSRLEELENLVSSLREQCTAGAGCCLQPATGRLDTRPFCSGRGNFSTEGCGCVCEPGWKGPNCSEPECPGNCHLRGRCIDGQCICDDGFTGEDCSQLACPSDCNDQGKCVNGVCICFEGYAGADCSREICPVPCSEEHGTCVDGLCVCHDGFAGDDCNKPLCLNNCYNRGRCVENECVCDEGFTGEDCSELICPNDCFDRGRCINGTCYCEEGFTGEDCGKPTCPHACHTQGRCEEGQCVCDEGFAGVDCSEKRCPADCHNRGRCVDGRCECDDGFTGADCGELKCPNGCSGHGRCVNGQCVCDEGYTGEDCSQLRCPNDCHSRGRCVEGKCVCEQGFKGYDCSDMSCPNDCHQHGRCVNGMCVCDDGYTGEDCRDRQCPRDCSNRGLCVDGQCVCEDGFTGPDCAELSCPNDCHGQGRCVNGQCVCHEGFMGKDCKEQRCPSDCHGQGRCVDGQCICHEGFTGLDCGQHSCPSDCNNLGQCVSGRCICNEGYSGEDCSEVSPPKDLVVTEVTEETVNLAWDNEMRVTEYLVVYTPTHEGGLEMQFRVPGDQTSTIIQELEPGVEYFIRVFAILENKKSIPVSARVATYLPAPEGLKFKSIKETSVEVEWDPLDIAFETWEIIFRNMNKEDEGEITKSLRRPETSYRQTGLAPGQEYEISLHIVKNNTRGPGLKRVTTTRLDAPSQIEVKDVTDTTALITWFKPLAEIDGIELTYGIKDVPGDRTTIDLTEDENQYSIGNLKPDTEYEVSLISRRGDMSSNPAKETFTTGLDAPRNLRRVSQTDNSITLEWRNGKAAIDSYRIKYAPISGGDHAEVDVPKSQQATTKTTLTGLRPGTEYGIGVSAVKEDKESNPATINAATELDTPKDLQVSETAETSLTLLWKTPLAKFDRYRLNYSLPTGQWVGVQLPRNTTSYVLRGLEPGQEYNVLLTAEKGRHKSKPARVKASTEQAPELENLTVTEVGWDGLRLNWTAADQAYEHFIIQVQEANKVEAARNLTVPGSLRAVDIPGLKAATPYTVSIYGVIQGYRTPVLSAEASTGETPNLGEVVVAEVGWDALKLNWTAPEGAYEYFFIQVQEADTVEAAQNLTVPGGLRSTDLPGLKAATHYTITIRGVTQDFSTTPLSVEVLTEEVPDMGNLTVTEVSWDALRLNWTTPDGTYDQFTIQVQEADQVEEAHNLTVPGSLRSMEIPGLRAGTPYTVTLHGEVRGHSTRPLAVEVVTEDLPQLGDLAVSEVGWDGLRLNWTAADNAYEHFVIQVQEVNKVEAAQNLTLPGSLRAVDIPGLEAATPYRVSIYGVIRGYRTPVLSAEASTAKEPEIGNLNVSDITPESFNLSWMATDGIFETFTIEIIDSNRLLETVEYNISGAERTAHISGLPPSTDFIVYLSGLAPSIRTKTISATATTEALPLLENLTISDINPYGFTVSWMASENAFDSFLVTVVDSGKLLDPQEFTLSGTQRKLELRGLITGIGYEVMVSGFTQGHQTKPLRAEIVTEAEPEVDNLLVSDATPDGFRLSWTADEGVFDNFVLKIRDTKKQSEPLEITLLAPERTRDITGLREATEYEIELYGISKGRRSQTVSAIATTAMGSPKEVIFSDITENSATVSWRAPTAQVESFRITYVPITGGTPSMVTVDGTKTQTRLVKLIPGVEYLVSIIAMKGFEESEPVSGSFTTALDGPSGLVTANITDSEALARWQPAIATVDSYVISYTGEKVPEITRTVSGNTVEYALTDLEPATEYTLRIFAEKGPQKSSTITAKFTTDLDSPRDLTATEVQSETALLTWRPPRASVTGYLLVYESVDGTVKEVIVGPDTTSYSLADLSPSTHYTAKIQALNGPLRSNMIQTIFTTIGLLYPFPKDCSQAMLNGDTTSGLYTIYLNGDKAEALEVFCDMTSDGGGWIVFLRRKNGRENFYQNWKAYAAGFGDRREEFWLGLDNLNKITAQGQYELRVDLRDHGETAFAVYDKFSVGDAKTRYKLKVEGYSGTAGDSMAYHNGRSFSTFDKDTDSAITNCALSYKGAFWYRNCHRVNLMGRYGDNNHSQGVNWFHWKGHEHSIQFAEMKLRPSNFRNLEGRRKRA
# T3 sequence (P04004 20-478): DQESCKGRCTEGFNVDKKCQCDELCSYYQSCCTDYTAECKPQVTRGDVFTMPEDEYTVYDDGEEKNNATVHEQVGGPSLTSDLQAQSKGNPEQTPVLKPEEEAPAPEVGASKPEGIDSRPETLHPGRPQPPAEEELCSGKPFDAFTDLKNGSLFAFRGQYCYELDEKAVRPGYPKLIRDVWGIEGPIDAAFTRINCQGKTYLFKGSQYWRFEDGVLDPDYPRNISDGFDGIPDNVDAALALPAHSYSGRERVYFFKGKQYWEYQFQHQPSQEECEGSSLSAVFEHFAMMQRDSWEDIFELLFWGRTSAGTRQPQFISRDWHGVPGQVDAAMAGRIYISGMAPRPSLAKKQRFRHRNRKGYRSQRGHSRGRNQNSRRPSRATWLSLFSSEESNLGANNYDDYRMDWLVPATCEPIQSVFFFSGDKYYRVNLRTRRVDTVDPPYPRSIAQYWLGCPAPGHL
# T1 sequence (P02671 36-866): as the sequence (P02671 36-866) above
# T2 sequence (P18510 whole entry): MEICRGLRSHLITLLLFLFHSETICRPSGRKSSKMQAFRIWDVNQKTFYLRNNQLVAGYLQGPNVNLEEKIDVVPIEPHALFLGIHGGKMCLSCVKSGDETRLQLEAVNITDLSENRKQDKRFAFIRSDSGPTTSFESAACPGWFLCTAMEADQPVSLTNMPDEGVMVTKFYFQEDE
Binder,Kd (PDGF-BB/PlGF123-141) [nM],Kd (IL-1Ra/PlGF123-141) [nM],Kd (human vitronectin) [nM],Kd (human plasma fibronectin) [nM],Kd (human tenascin C) [nM],Kd (human fibrinogen) [nM]
B1,16.7,43.5,,,,
"murine wild-type platelet-derived growth factor-BB (PDGF-BB) (ligand, mouse, UniProt P31240 82-190, looked up, platelet-derived growth factor subunit B, mouse; PDGF-BB occurs as a dimer; source: bought: Peprotech) SLGSLAAAEPAVIAECKTRTEVFQISRNLIDRTNANFLVWPPCVEVQRCSGCCNNRNVQCRASQVQMRPVQVRKIEIVRKKPIFKKATVTLEDHLACKCETIVTPRPVT",,,32.1,67.5,94.3,206
"murine wild-type IL-1 receptor antagonist (IL-1Ra) (natural protein, mouse, UniProt P25085 27-178, looked up, interleukin-1 receptor antagonist protein, mouse; also called interleukin-1 receptor antagonist) RPSGKRPCKMQAFRIWDTNQKTFYLRNNQLIAGYLQGPNIKLEEKIDMVPIDLHSVFLGIHGGKLCLSCAKSGDDIKLQLEEVNITDLSKNKEEDKRFTFIRSEKGPTTSFESAACPGWFLCTTLEADRPVSLTNTPEEPLIVTKFYFQEDQ",,,73.2,129,113,663

# Source: PMC7998035, “Restoration of the healing microenvironment in diabetic wounds with matrix-binding IL-1 receptor antagonist” (Communications Biology, 2021)
